Series [1] deals with the molecule itself. Put plainly: cross-linking; in vivo DSS cross-linking (1 mM DSS for 10 minutes, room temperature, PBS) of HEK293 expressing HA-RBM45 constructs; SDS-PAGE and immunoblot. Background: Immunoblotting shows a protein as a band on a membrane.
Series [2] concerns the molecule itself. The experiment in a line: cross-linking; in vivo DSS cross-linking of live HEK293 stably expressing FLAG-RBM45, DSS 0 to 5000 uM; denaturing SDS-PAGE and immunoblot.

This note sets out measurements from publication PMC4585734, “RBM45 homo-oligomerization mediates association with ALS-linked proteins and stress granules” (Scientific Reports, 2015).

Several values for one entry are separate records, joined by “and”; a condition that tells them apart may be missing. Identical values can stand only once.

B1: HA-RBM45 deletion construct D2 (Δ230–234) (natural protein, human, UniProt Q8IUH3-3 1-474, looked up)
chain: MDEAGSSASGGGFRPGVDSLDEPPNSRIFLVISKYTPESVLRERFSPFGDIQDIWVVRDKHTKESKGIAFVKFARSSQACRAMEEMHGQCLGPNDTKPIKVFIAQSRSSGSHRDVEDEELTRIFVMIPKSYTEEDLREKFKVYGDIEYCSIIKNKVTGESKGLGYVRYLKPSQAAQAIENCDRSFRAILAEPKNKASESSEQDYYSNMRQEALGHEPRVNMFPFEQQSEKNDSRGQEAISKRLSVVSRVPFTEEQLFSIFDIVPGLEYCEVQRDPYSNYGHGVVQYFNVASAIYAKYKLHGFQYPPGNRIGVSFIDDGSNATDLLRKMATQMVAAQLASMVWNNPSQQQFMQFGGSSGSQLPQIQTDVVLPSCKKKAPAETPVKERLFIVFNPHPLPLDVLEDIFCRFGNLIEVYLVSGKNVGYAKYADRISANDAIATLHGKILNGVRLKVMLADSPREESNKRQRTY
notes: source: HEK293, transfected, in lysate or in cells; not shown: 2xHA, N-terminal, kept
One may read the stoichiometry N as a count of units in the complex or per binding partner. B1: the “stoichiometry N” value in series [1] amounted to 5.

B2: truncated HA-RBM45 variant (107–474) that lacks RRM1 (domain or fragment, human, UniProt Q8IUH3-3 107-474, looked up)
chain: RSSGSHRDVEDEELTRIFVMIPKSYTEEDLREKFKVYGDIEYCSIIKNKVTGESKGLGYVRYLKPSQAAQAIENCDRSFRAILAEPKNKASESSEQDYYSNMRQEALGHEPRVNMFPFEQQSEFSSFDKNDSRGQEAISKRLSVVSRVPFTEEQLFSIFDIVPGLEYCEVQRDPYSNYGHGVVQYFNVASAIYAKYKLHGFQYPPGNRIGVSFIDDGSNATDLLRKMATQMVAAQLASMVWNNPSQQQFMQFGGSSGSQLPQIQTDVVLPSCKKKAPAETPVKERLFIVFNPHPLPLDVLEDIFCRFGNLIEVYLVSGKNVGYAKYADRISANDAIATLHGKILNGVRLKVMLADSPREESNKRQRTY
notes: source: HEK293, transfected, in cells; not shown: 2xHA, N-terminal, kept
Consider B2, for which the “stoichiometry N” value in series [1] was 5.

B3: HA-RBM45 deletion construct D1 (Δ212–216) (natural protein, human, UniProt Q8IUH3-3 1-474, looked up)
chain: MDEAGSSASGGGFRPGVDSLDEPPNSRIFLVISKYTPESVLRERFSPFGDIQDIWVVRDKHTKESKGIAFVKFARSSQACRAMEEMHGQCLGPNDTKPIKVFIAQSRSSGSHRDVEDEELTRIFVMIPKSYTEEDLREKFKVYGDIEYCSIIKNKVTGESKGLGYVRYLKPSQAAQAIENCDRSFRAILAEPKNKASESSEQDYYSNMRQEPRVNMFPFEQQSEFSSFDKNDSRGQEAISKRLSVVSRVPFTEEQLFSIFDIVPGLEYCEVQRDPYSNYGHGVVQYFNVASAIYAKYKLHGFQYPPGNRIGVSFIDDGSNATDLLRKMATQMVAAQLASMVWNNPSQQQFMQFGGSSGSQLPQIQTDVVLPSCKKKAPAETPVKERLFIVFNPHPLPLDVLEDIFCRFGNLIEVYLVSGKNVGYAKYADRISANDAIATLHGKILNGVRLKVMLADSPREESNKRQRTY
notes: also called HA-RBM45 D1 mutant; source: HEK293, transfected, in lysate or in cells; not shown: 2xHA, N-terminal, kept
Turning to B3, in series [1], the “stoichiometry N” value was 5.

B4: FLAG-tagged RBM45 (full-length FLAG-RBM45) (natural protein, human, UniProt Q8IUH3-3 1-474, looked up)
chain: MDEAGSSASGGGFRPGVDSLDEPPNSRIFLVISKYTPESVLRERFSPFGDIQDIWVVRDKHTKESKGIAFVKFARSSQACRAMEEMHGQCLGPNDTKPIKVFIAQSRSSGSHRDVEDEELTRIFVMIPKSYTEEDLREKFKVYGDIEYCSIIKNKVTGESKGLGYVRYLKPSQAAQAIENCDRSFRAILAEPKNKASESSEQDYYSNMRQEALGHEPRVNMFPFEQQSEFSSFDKNDSRGQEAISKRLSVVSRVPFTEEQLFSIFDIVPGLEYCEVQRDPYSNYGHGVVQYFNVASAIYAKYKLHGFQYPPGNRIGVSFIDDGSNATDLLRKMATQMVAAQLASMVWNNPSQQQFMQFGGSSGSQLPQIQTDVVLPSCKKKAPAETPVKERLFIVFNPHPLPLDVLEDIFCRFGNLIEVYLVSGKNVGYAKYADRISANDAIATLHGKILNGVRLKVMLADSPREESNKRQRTY
notes: pcDNA3; band of 56.6 kD; also called 3xFLAG-RBM45; FLAG-RMB45; source: HEK293, transfected or stably expressing, in lysate or in cells; not shown: 3xFLAG, N-terminal, kept
Turning to B4, the “stoichiometry N” value in series [2] was 2 and 5.

B5: HA-RBM45 NLS M2/3 double mutant (natural protein, human, UniProt Q8IUH3-3 1-474, looked up)
chain: MDEAGSSASGGGFRPGVDSLDEPPNSRIFLVISKYTPESVLRERFSPFGDIQDIWVVRDKHTKESKGIAFVKFARSSQACRAMEEMHGQCLGPNDTKPIKVFIAQSRSSGSHRDVEDEELTRIFVMIPKSYTEEDLREKFKVYGDIEYCSIIKNKVTGESKGLGYVRYLKPSQAAQAIENCDRSFRAILAEPKNKASESSEQDYYSNMRQEALGHEPRVNMFPFEQQSEFSSFDKNDSRGQEAISKRLSVVSRVPFTEEQLFSIFDIVPGLEYCEVQRDPYSNYGHGVVQYFNVASAIYAKYKLHGFQYPPGNRIGVSFIDDGSNATDLLRKMATQMVAAQLASMVWNNPSQQQFMQFGGSSGSQLPQIQTDVVLPSCKKKAPAETPVKERLFIVFNPHPLPLDVLEDIFCRFGNLIEVYLVSGKNVGYAKYADRISANDAIATLHGKILNGVALAVMLADSPAEESNAAQATY
notes: also called NLS-M2/3 mutant; HA-RBM45-NLS mutant; source: HEK293, transfected, in lysate or in cells; not shown: 2xHA, N-terminal, kept
As for B5, the “stoichiometry N” value in series [1] was determined as 5.

B6: HA-tagged full-length RBM45 (natural protein, human, UniProt Q8IUH3-3 1-474, looked up)
chain: MDEAGSSASGGGFRPGVDSLDEPPNSRIFLVISKYTPESVLRERFSPFGDIQDIWVVRDKHTKESKGIAFVKFARSSQACRAMEEMHGQCLGPNDTKPIKVFIAQSRSSGSHRDVEDEELTRIFVMIPKSYTEEDLREKFKVYGDIEYCSIIKNKVTGESKGLGYVRYLKPSQAAQAIENCDRSFRAILAEPKNKASESSEQDYYSNMRQEALGHEPRVNMFPFEQQSEFSSFDKNDSRGQEAISKRLSVVSRVPFTEEQLFSIFDIVPGLEYCEVQRDPYSNYGHGVVQYFNVASAIYAKYKLHGFQYPPGNRIGVSFIDDGSNATDLLRKMATQMVAAQLASMVWNNPSQQQFMQFGGSSGSQLPQIQTDVVLPSCKKKAPAETPVKERLFIVFNPHPLPLDVLEDIFCRFGNLIEVYLVSGKNVGYAKYADRISANDAIATLHGKILNGVRLKVMLADSPREESNKRQRTY
notes: pcDNA3; also called HA-RBM45; HA-RBM45 wild-type; source: HEK293, transfected, in lysate or in cells; not shown: 2xHA, N-terminal, kept
Take B6: the “stoichiometry N” value in series [1] was 5 and 10.
